Literature values in PMC12521419.

Key:
[1] = test system: LMBV virion (largemouth bass virus particle; binding protein not identified) (Largemouth bass virus (genus Ranavirus, family Iridoviridae), isolated from diseased largemouth bass, propagated in FHM cells); test: not stated for truncated form (ELASA stated for parent LA38); details: PBS, aptamers 500 nM each with LMBV in 100 uL for 1 h (temperature not stated); streptavidin beads 4 C 30 min; washes PBS + 0.1% Tween-20; SDA 37 C 30 min …
[2] = test system: LMBV virion (largemouth bass virus particle; binding protein not identified) (Largemouth bass virus (genus Ranavirus, family Iridoviridae), isolated from diseased largemouth bass, propagated in FHM cells); test: not stated for truncated form (ELASA stated for parent LA13); details: PBS, aptamers 500 nM each with LMBV in 100 uL for 1 h (temperature not stated); streptavidin beads 4 C 30 min; washes PBS + 0.1% Tween-20; SDA 37 C 30 min …

| Sequence | Kd [1] [nM] | Kd [2] [nM] |
| --- | --- | --- |
| GCCGGCCCGGGGGATAGAGTGCTCCCGATCCCTTGGCGAAGGGAC [LA38s] | 3.42 | – |
| TTTTGACGCTTTATCCTTTTCTTATGGCGGGATAGTTTCG [LA13s] | – | 2.34 |
